To fix the notation:
B1: OR4K15 (parent)
chain: GUUAACGGUCAUAGGCCAUGGAAACUAGGAGCACCAUUUCGCUGCCAGUGAAGAAAUGAACAAAGAAAAUCUGGGCCAGGCAGGCAUCAAAAGAAAUAGUCUUGCGCUCAACCAGAAAGUCUGUAAUCAUUUUAAGGGUA

This data set covers variants of B1. The data set is described as follows: self-cleavage, relative activity (ratio to wild type); higher = more cleavage; in vitro, sequencing; the parent is a self-cleaving ribozyme.
Turning to U39C C77U, the self-cleavage came to 1.75.

Turning to U38C U43C, the self-cleavage was found to be 1.59.

In the case of C40U U103C, the self-cleavage is 0.96.

On to U39A A82U, for which the self-cleavage worked out at 0.28.

Consider U39A A82G, for which the self-cleavage stood at 0.44.

U39C U97A: the self-cleavage turned out to be 1.16.

As to U39A A66U, the self-cleavage was determined as 1.74.

Take G41A A51C: the self-cleavage came to 1.57.

For U39C C81G, the self-cleavage stood at 0.16.

Take U38C G137A: the self-cleavage was found to be 0.9.

As for U38G A91G, the self-cleavage turned out to be 0.38.

Take U43A A86U: the self-cleavage is 1.7.

For C40U A68G, the self-cleavage turned out to be 1.84.

As to U43A A60G, the self-cleavage stood at 1.52.

On to G41A A140G, for which the self-cleavage was found to be 1.89.

Consider U38G U108C, for which the self-cleavage stood at 0.03.

As for U39A A98G, the self-cleavage came to 1.11.

Regarding U43A A67G, the self-cleavage stood at 1.88.

As to U38C U127G, the self-cleavage stood at 1.17.

For the variant U38C U127C, the self-cleavage is 0.66.

With C40U U97C, the self-cleavage stood at 0.94.

For the variant C40U U97A, the self-cleavage was determined as 1.63.

Regarding G41C U87C, the self-cleavage is 2.03.

Consider U43A A110G, for which the self-cleavage is 0.19.

With G41C A67U, the self-cleavage turned out to be 1.8.

For the variant U39C A86U, the self-cleavage was found to be 2.13.

U39C A86G: the self-cleavage is 1.19.

As for U39C A54G, the self-cleavage amounted to 0.69.

With U39A A125G, the self-cleavage worked out at 1.01.

On to G41U U122C, for which the self-cleavage was determined as 1.34.

As for U39C A52C, the self-cleavage worked out at 1.78.

U39C A52G: the self-cleavage worked out at 1.76.

On to G41A U132C, for which the self-cleavage came out at 1.79.

Take G41C A64U: the self-cleavage is 2.26.

Consider U39G A96U, for which the self-cleavage came to 1.58.

For U43A A51G, the self-cleavage was 1.64.

For the variant U43A A51U, the self-cleavage came to 1.28.

As to U38C C45U, the self-cleavage is 1.23.

Regarding U39C A68U, the self-cleavage is 2.09.

For U39A A118G, the self-cleavage turned out to be 1.28.

Turning to U39G A129G, the self-cleavage came out at 0.86.

In the case of U38G A62U, the self-cleavage was 1.41.

Consider U38G A62G, for which the self-cleavage was found to be 1.59.

U39A C109U: the self-cleavage came to 0.37.

For the variant C42G A47U, the self-cleavage is 1.02.

For U39C U124C, the self-cleavage is 1.25.

With U38C C109A, the self-cleavage stood at 0.51.

Turning to C40U U108A, the self-cleavage was determined as 0.01.

Regarding U39G A51G, the self-cleavage amounted to 1.75.

For G41C A52U, the self-cleavage amounted to 2.16.

For G41A A135G, the self-cleavage came to 0.99.

Regarding G41A U133C, the self-cleavage stood at 1.98.

On to U39A A51U, for which the self-cleavage was determined as 1.74.

Take C42U U127C: the self-cleavage is 0.99.

For the variant G41C A51C, the self-cleavage is 0.71.

On to U39A A69U, for which the self-cleavage was found to be 0.83.

U39A A69G: the self-cleavage was 1.5.

With U38C C105A, the self-cleavage came to 0.05.

Take U39A A68C: the self-cleavage was 1.75.

On to U38G C113U, for which the self-cleavage turned out to be 0.07.

U38G A86U: the self-cleavage is 1.6.

Regarding C40U A116G, the self-cleavage was 1.57.

With U39C U120A, the self-cleavage was 2.52.

C40A A67G: the self-cleavage is 1.7.

For U43A G74C, the self-cleavage was 0.23.

With U39A A134U, the self-cleavage turned out to be 2.44.

With C40A A111G, the self-cleavage was 0.02.

Regarding C40A A66G, the self-cleavage was 1.69.

Consider C40A A66U, for which the self-cleavage was 1.52.

Consider C42U A129G, for which the self-cleavage came to 1.47.

C40U A114G: the self-cleavage was found to be 0.5.

Regarding G41C U122A, the self-cleavage was 1.57.

For the variant U38C U49C, the self-cleavage was 1.21.

For U38C U49A, the self-cleavage was found to be 1.45.

Regarding U39G A89G, the self-cleavage was 1.18.

For U39A A55G, the self-cleavage was determined as 1.53.

On to C42G U43A, for which the self-cleavage stood at 1.91.

U38C U103G: the self-cleavage is 0.03.

On to U39C A56C, for which the self-cleavage was found to be 0.43.

Turning to U39C A56G, the self-cleavage is 0.89.

U39C A134U: the self-cleavage amounted to 1.21.

As for U39C G138A, the self-cleavage was found to be 1.78.

As for G41C A95G, the self-cleavage was determined as 2.25.

For U39A A96U, the self-cleavage stood at 1.71.

For U43A A98C, the self-cleavage was 1.91.

With U43A U57C, the self-cleavage was found to be 1.15.

For C40A A69G, the self-cleavage came to 1.65.

Turning to C40A A78G, the self-cleavage is 0.32.

As to C40U U122A, the self-cleavage came to 1.3.

For the variant G41A A110G, the self-cleavage amounted to 0.12.

As to C42U A126G, the self-cleavage stood at 0.91.

With G41U A60G, the self-cleavage is 1.9.

In the case of G41U A89G, the self-cleavage was 2.13.

Consider U43A A126G, for which the self-cleavage is 1.25.

Regarding U43A A126U, the self-cleavage amounted to 1.41.

In the case of U38C U87A, the self-cleavage is 1.6.

Regarding U38C U87C, the self-cleavage was 1.26.

Consider U39A U72G, for which the self-cleavage turned out to be 0.3.

For the variant U39C C121U, the self-cleavage turned out to be 2.87.

For C42U A95G, the self-cleavage came to 2.84.

In the case of G41A A52G, the self-cleavage amounted to 1.07.

On to U38C U102A, for which the self-cleavage amounted to 1.44.

With U38C U102C, the self-cleavage was found to be 1.91.

Turning to U39C G79U, the self-cleavage was 0.1.

With G41U A47G, the self-cleavage was determined as 1.2.

Consider G41A A111G, for which the self-cleavage came to 0.02.

In the case of U38G A59G, the self-cleavage was 0.9.

In the case of U39A U131C, the self-cleavage was 1.59.

In the case of C42U A116G, the self-cleavage stood at 0.68.

Regarding U38C U97C, the self-cleavage was found to be 1.57.

Consider G41A A62G, for which the self-cleavage was 2.53.

Turning to U39C G50A, the self-cleavage came out at 1.2.

For the variant G41A U130C, the self-cleavage was determined as 0.99.

In the case of C40A A89G, the self-cleavage was 1.44.

Take U43A U49C: the self-cleavage stood at 1.49.

Take U39C A114U: the self-cleavage is 0.1.

Consider C42A A91U, for which the self-cleavage was 0.86.

As for C40U U57C, the self-cleavage turned out to be 1.07.

For U39A A117G, the self-cleavage turned out to be 2.24.

In the case of C40U U72A, the self-cleavage amounted to 0.34.

For U38G A114G, the self-cleavage is 0.79.

For G41A U124C, the self-cleavage is 1.02.

With C40A U124C, the self-cleavage amounted to 0.93.

U39C U132A: the self-cleavage was found to be 0.7.

With U39C U132C, the self-cleavage came to 1.12.

Take C40U A67G: the self-cleavage was found to be 0.82.

Consider G41A A66G, for which the self-cleavage is 1.74.

On to G41C A86C, for which the self-cleavage was 0.81.

Turning to U38C U130C, the self-cleavage is 1.5.

U39C G48A: the self-cleavage amounted to 1.14.

As for U39G A125G, the self-cleavage amounted to 0.62.

With G41A A125G, the self-cleavage stood at 0.77.

Regarding G41A A125C, the self-cleavage is 0.19.

Regarding U39A C85G, the self-cleavage stood at 1.07.

For C40U U130C, the self-cleavage stood at 0.46.

Take U39A A67U: the self-cleavage is 2.37.

On to U39A A67G, for which the self-cleavage turned out to be 1.5.

On to C42U G44A, for which the self-cleavage was 1.51.

Take C40U U131C: the self-cleavage was 1.93.

As to C42A G79U, the self-cleavage amounted to 0.02.

As to U39C A82G, the self-cleavage was 0.67.

As to U39C U72C, the self-cleavage was determined as 0.27.

As to U39C U72A, the self-cleavage amounted to 0.32.

For the variant C42U A54G, the self-cleavage amounted to 1.96.

Regarding U38C G99C, the self-cleavage is 0.34.

With C42A U120A, the self-cleavage was determined as 1.7.

For the variant U39C A118G, the self-cleavage stood at 1.71.

On to U39C A47C, for which the self-cleavage was 1.63.

For U39C A47G, the self-cleavage is 1.25.

For C40A A117G, the self-cleavage was determined as 2.53.

U39C U57C: the self-cleavage was found to be 1.64.

As for U39C U57A, the self-cleavage was determined as 0.92.

Take U39A U133C: the self-cleavage turned out to be 1.76.

On to U39C C107A, for which the self-cleavage was determined as 0.03.

Turning to U38C U122C, the self-cleavage was determined as 0.8.

As for U38C U120A, the self-cleavage stood at 1.76.

U39C C85G: the self-cleavage amounted to 0.99.

Take G41A A92G: the self-cleavage worked out at 0.97.

As to G41C A66U, the self-cleavage was 1.25.

As for U39C G106A, the self-cleavage stood at 0.01.

For U39C A140G, the self-cleavage was 1.57.

For the variant U39C A140U, the self-cleavage stood at 1.62.

Regarding C42G A51G, the self-cleavage was 1.47.

Consider U39C A116U, for which the self-cleavage came out at 0.23.

On to C40U A95G, for which the self-cleavage is 1.96.

Regarding U39C A51U, the self-cleavage was 2.29.

In the case of C40U U120C, the self-cleavage was 1.32.

The record behind these values is the RNAGym collection of RNA variant scans (doi:10.7554/elife.90254).
